From patent US20230416378A1

Target: recombinant human VEGF-A (human) (UniProt P15692)
Experiment: cell-based or functional assay

Chain of recombinant human VEGF-A (human) (P15692 other isoform, or with tags, fused parts or gaps limits assumed): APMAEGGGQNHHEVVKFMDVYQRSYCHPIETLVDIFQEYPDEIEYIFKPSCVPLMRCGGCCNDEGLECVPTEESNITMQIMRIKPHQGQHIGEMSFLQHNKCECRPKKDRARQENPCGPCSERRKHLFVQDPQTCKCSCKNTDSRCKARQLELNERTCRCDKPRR

With “Eylea (aflibercept), VEGF trap (Fc fusion)” as the substance, how does the VEGF induced cell integrity loss IC50 read?
Its VEGF induced cell integrity loss IC50 is 0.33 nM.
